{"source": "paper PMC11931385", "about": "“Structural and functional analysis of cancer-associated missense variants in the retinoblastoma protein pocket domain” (The Journal of Biological Chemistry, 2025)", "assay_in_all_cases": "fluorescence polarisation; 37 °C, after the 25 °C reading ramped over 7 min to 37 °C and 2 min incubation; unlabeled Rb^P against 1.5 nM TMR-E2F1^TD or 7.5 nM TMR-E7^LxCxE; 25 mM Tris pH 8.0, 200 mM NaCl, 1 mM DTT, 0.1% Tween-20; apparent Kd", "details_in_all_cases": "both partners purified", "key": {"Rb^P A490V": {"molecular_target": "T1, Rb^P A490V (human, UniProt P06400 380-788, A490V)", "T1 construct": "also called variant 17", "T1 sequence (looked up)": "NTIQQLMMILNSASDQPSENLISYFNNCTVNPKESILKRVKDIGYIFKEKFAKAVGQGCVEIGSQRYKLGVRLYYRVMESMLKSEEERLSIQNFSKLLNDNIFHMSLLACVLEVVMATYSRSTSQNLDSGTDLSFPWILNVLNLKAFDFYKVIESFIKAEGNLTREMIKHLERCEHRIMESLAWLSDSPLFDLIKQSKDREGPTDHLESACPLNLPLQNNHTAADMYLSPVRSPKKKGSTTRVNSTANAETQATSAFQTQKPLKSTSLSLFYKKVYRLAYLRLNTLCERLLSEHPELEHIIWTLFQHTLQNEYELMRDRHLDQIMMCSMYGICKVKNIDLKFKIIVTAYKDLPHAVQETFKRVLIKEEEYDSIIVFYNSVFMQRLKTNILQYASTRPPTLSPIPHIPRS"}, "Rb^P S671F": {"molecular_target": "T2, Rb^P S671F (human, UniProt P06400 380-788, S671F)", "T2 construct": "also called variant 53", "T2 sequence (looked up)": "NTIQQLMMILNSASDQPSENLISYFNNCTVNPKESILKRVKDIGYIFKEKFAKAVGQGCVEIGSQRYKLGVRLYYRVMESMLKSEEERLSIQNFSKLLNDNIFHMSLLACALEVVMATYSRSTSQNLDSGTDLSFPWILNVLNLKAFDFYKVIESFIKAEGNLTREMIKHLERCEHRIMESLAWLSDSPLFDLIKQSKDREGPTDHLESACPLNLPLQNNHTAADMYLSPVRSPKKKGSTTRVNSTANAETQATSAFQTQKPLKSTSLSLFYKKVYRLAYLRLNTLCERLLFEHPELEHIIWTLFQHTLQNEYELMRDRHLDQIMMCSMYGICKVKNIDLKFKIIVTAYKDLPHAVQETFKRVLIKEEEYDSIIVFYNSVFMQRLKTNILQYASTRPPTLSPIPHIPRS"}, "Rb^P H673P": {"molecular_target": "T3, Rb^P H673P (human, UniProt P06400 380-788, H673P)", "T3 construct": "also called variant 54", "T3 sequence (looked up)": "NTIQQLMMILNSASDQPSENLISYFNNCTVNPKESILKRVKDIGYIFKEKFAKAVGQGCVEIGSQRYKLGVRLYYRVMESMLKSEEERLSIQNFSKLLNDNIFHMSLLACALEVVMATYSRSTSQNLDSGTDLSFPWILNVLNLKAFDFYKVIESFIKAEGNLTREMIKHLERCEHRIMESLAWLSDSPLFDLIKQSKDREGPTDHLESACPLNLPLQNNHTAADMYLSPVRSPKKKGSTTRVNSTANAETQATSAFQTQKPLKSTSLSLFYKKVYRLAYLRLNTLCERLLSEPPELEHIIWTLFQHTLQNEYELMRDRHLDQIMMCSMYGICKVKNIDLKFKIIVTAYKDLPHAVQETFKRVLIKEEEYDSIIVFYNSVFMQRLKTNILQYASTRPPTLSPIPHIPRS"}, "Rb^P I679F": {"molecular_target": "T4, Rb^P I679F (human, UniProt P06400 380-788, I679F)", "T4 construct": "also called variant 57", "T4 sequence (looked up)": "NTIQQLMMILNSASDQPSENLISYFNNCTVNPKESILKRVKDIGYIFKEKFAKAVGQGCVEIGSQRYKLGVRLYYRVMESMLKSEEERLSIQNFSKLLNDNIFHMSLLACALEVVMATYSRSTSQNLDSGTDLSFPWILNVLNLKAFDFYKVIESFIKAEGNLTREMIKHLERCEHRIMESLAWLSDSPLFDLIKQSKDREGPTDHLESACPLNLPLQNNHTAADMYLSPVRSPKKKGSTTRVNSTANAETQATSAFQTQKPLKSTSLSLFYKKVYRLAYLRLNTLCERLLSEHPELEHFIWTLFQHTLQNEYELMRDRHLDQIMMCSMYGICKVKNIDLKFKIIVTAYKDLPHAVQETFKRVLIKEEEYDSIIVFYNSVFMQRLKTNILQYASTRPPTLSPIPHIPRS"}, "Rb^P D697E": {"molecular_target": "T5, Rb^P D697E (human, UniProt P06400 380-788, D697E)", "T5 construct": "also called variant 62", "T5 sequence (looked up)": "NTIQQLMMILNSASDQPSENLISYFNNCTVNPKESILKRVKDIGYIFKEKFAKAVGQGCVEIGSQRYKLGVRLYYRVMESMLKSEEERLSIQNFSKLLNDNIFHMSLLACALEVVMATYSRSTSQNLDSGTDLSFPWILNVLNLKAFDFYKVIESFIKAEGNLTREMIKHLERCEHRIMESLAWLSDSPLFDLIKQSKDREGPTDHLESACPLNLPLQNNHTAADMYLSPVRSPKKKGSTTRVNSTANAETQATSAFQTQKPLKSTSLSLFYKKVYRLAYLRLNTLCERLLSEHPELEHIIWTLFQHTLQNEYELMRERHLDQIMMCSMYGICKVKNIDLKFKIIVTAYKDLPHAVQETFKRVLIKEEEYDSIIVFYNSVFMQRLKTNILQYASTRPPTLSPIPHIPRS"}}, "note": "No end group written: not given here. TMR = tetramethyl rhodamine dye"}
{"binder": "{TMR}-GEGIRDLFDCDFGDLTPLD (also called E2F^TD; source: synthetic peptide, bought: GenScript)", "note": "[TMR-E2F1^TD, peptide of the E2F1 transactivation domain]", "values": [{"measurement": "Kd", "setting": "Rb^P A490V", "result": 87, "unit": "nM"}, {"measurement": "Kd", "setting": "Rb^P S671F", "result": 46, "unit": "nM"}, {"measurement": "Kd", "setting": "Rb^P H673P", "result": 98, "unit": "nM"}, {"measurement": "Kd", "setting": "Rb^P I679F", "result": 33, "unit": "nM"}, {"measurement": "Kd", "setting": "Rb^P D697E", "result": 129, "unit": "nM"}]}
{"binder": "DLYCYEQLN (also: TMR label, position not given here, source: synthetic peptide, bought: GenScript)", "note": "[TMR-E7^LxCxE, LxCxE peptide of the E7 oncoprotein from HPV]", "values": [{"measurement": "Kd", "setting": "Rb^P A490V", "result": 33, "unit": "nM"}, {"measurement": "Kd", "setting": "Rb^P S671F", "result": 19, "unit": "nM"}, {"measurement": "Kd", "setting": "Rb^P H673P", "result": 83, "unit": "nM"}, {"measurement": "Kd", "setting": "Rb^P I679F", "result": 20, "unit": "nM"}, {"measurement": "Kd", "setting": "Rb^P D697E", "result": 46, "unit": "nM"}]}
